{"source": "the domain aggregation screens of Martell et al. (2025)", "data": [{"test": "soluble fraction after stress (log2 fold change); higher = more stays soluble; pooled small domains, quantitative proteomics", "details": "stress: 75 degC", "values": [{"sequence": "HMDREIVEAIVPLEAAGKRFDAALAEMFPEFSRSRLTEWIKAGDALLAGEIVKPKVSVRGGEAVSLSIRV", "soluble fraction (log2)": -0.765}, {"sequence": "HMDRELVALVQKALSQLSEQQRRIVELHVMEGMKYLEIADLLQLSENTVRTHLKRAYKILRENH", "soluble fraction (log2)": -1.98}, {"sequence": "HMDRERFIKLGREIARAAFENVGKKATDKVLNSAAKKLRLEDGDEVLARLGSAEIEARSVVQAVYPDLI", "soluble fraction (log2)": 0.286}, {"sequence": "HMDRKARRKYIEQVVNDRKIETQEELLKLLTEAGFETTQATISRDIHALNIVKANDGDGHTHYVQLH", "soluble fraction (log2)": -0.0596}, {"sequence": "HMDRKEEIIIVTLKLASQIGLSNVSMEQIAKQVGIKKPSLYNHFKSKDEIIDAMYEYLREKSKN", "soluble fraction (log2)": -2.16}, {"sequence": "HMDRMIPPYGLEVTYDKTTHIIFPSAVRYVDLGSPNLIAGKADGSENVIRVKATRKNFREETNMSVITE", "soluble fraction (log2)": 0.152}, {"sequence": "HMDRPEPLYIVNGKEVQTLEEAFELGRTLGSAKKGTQVRLRRLLPEEGVEKYGEKGRNGVFEFMVSA", "soluble fraction (log2)": 0.269}, {"sequence": "HMDRPLRTKEHFARFAGEQVVVKTSSPIDGRSSFTGTLEGMEGDDVIVEVDGSRIAIGYSLIKRAHVVG", "soluble fraction (log2)": 0.00178}, {"sequence": "HMDRRFFVAEENYKRLDVFLSERMEEFTRSRIKKLIDEGHVELNGKSAKAGAEIRPGDEVAAEIPEVKE", "soluble fraction (log2)": 0.195}, {"sequence": "HMDRRIDIANAVKTALGSLPERQKTAIVLVHYEGFSGAETAKLLGISVEAVESLLARARRNLRQTLGP", "soluble fraction (log2)": -0.471}, {"sequence": "HMDRTIGEIGLVTETIDSTLESGRVMVDGLSWKARTSDNTVLEAGTRVQVKEIHGVTLTVEKA", "soluble fraction (log2)": 0.292}, {"sequence": "HMDRTLTYTVSIEESDLRADQFLSRRGFSSHLLTRLRKNMEHLLINGTPSRTNTHLHEGDILTVHIVEE", "soluble fraction (log2)": -2.19}, {"sequence": "HMDRWTPLIVAVLIEGSHRFGELRSAIGGITPKVLTETLRSMERDGLVTRDQVPGVPPRVDYALTPLG", "soluble fraction (log2)": -0.462}, {"sequence": "HMDRYVDEEKRFYWRSGEAYLNFSKYKDRSLAEVATVDPGFLRWMMEADFSPETKQIVERALEGEFPQKK", "soluble fraction (log2)": -0.29}, {"sequence": "HMDSADADLLRRIEDLLSSRRSVIREARLADMLGVPRDQVARALDLLQERGVIGLTTDSGMKRIAFRRN", "soluble fraction (log2)": -0.356}, {"sequence": "HMDSAQLARWAATILAQNGRKITPSTMNLFLERVGDDMENIRMELEKLISYTMGSEVVTAEDVKVITTVQ", "soluble fraction (log2)": -1.01}, {"sequence": "HMDSAVLQKHLVKLIELHAPIKARNLAKILADEFGKHVDRSAVNSALYSLKAERKVEVNSSYEWSLD", "soluble fraction (log2)": -2.25}, {"sequence": "HMDSDRAARLSSLTPQQFRVLRMVSEGQLNKQIAYQLNISEATVKSHVSAILQKLGVNSRTQAVILATRLD", "soluble fraction (log2)": -3.37}, {"sequence": "HMDSEQLSGLVNMGFSVYQAKTALEMFDNDIERAANYL", "soluble fraction (log2)": -0.478}, {"sequence": "HMDSERTALLSSDRTSFTAREAALLIGVSQRDIYRMIEDELLDSFTVGKMIRIRRSALEWWLS", "soluble fraction (log2)": -2.93}, {"sequence": "HMDSFEEGTYRKNQRGFGFVKIENQEDEIFISKENSLNALNGDRVIVEIIEDKDRTKRAEGKIKKILKHE", "soluble fraction (log2)": 0.531}, {"sequence": "HMDSGLLSAREREVAGLVLSGMTYAEIGEAIFISPRTAEHHIARIRRRLGATSRTDLIAKLQAIVGID", "soluble fraction (log2)": -3.41}, {"sequence": "HMDSGVPEWLASALRASPVAWKNFLALPPSHQRRYVGWISSARRDETRNRRIAEAISLLVEHKRLG", "soluble fraction (log2)": -2.18}, {"sequence": "HMDSIKDQIYQILKEDILTGELRSGEQLVEQTIAARFNTSRSPVREAIKQLTGDGLVINITNKGTFVK", "soluble fraction (log2)": 0.227}, {"sequence": "HMDSISEQIYSIIKEEILLAKRKPGEQINPRKLADEFETSVMPIRDALNQLANEGLVIRKPRVGFFVR", "soluble fraction (log2)": -0.501}, {"sequence": "HMDSITEADLLRWAHALSGIARTGLGFTESRYERERYEEVLAVAADILAASSRSHDRAALVDEWLKMVGV", "soluble fraction (log2)": -2.03}, {"sequence": "HMDSKKNLLGKNGLAFTTLRPAGTVLIDGQRHDVISNGDMIPKGATVRVIAIEGASITVEALPD", "soluble fraction (log2)": 0.0814}, {"sequence": "HMDSMATVPDLVGKTEDEAKALANDAHLGVQMAGEEASDQEKGKISRQETAAGTQVAEYTTVKYWVSTGTQ", "soluble fraction (log2)": 0.763}, {"sequence": "HMDSPALAIPSSAILRDGLEHIFFRQDPSDPDQVIRVVADLGLSDGRWTVVRSGLERTDQVVLSGA", "soluble fraction (log2)": 0.181}, {"sequence": "HMDSQKKNETLSSTADEIIKNYAGKRDLSEESMEQLEQFQKDMRGADVNIFTAAQIRMLDQIFQENLH", "soluble fraction (log2)": 0.221}, {"sequence": "HMDSSLVWVDYLLGSKLTKLNSSNELTGPGASAKTIGAFLGENKQSFDLYIESVHNARDTYSDILTHGT", "soluble fraction (log2)": -0.186}, {"sequence": "HMDSSSYSAKVGTLIQETRQARGMTQAQLAQALGTSQSAINRIEKGGQNISLDMLNRISEVLSSQIVTLNP", "soluble fraction (log2)": -0.0411}, {"sequence": "HMDSVAKSFLAEIERFLETAGLEPTTLGKQALGDPSFVFDLRKGRSPSTRTIGKLRVWMQQQNALS", "soluble fraction (log2)": -1.34}, {"sequence": "HMDSVTLGISFNGKTRFTLDFPADAAAADIEKAALEAEQSQRYLEGMTVAKVIVVPGRIVNIVLK", "soluble fraction (log2)": -2.23}, {"sequence": "HMDSVTMYATTGVNVRSGPSTSYSIVGGLDRGDKVTRIGTSGNWTKVVWGNGSAYVFSKYLQTGY", "soluble fraction (log2)": -3.04}, {"sequence": "HMDTAEQNWRLRGKLVTLGLNARQIRMALASHAPRYLEDNIAVVERDLAAGKVRNLPAYLLAALREDYRP", "soluble fraction (log2)": -1.86}, {"sequence": "HMDTEIGDILALRQIMELLDEKDRQLIIMRYFQGLTQSVTAKNLNMTQVQVSRREKKLLTFMREQLL", "soluble fraction (log2)": -0.702}, {"sequence": "HMDTEVVMINVVGMNIDKAKNSLNHKNILYKISYQDVSEGENNVVLKQSISSNTKIKKGQVVSLVVGKLN", "soluble fraction (log2)": -1.42}, {"sequence": "HMDTFEITVEESDIDKRIDLFLAGNLESFSRSYIQDLIKKGKATISGKPVKANYRLREGDSVVLSIPKPK", "soluble fraction (log2)": -0.209}, {"sequence": "HMDTGKLQSLVGSRGVAHTVLRPSGKVMIGDDVYPAVAETGFIPRGTAIVVRREEQGQLYVVEARK", "soluble fraction (log2)": -0.318}, {"sequence": "HMDTGPISGQVEADRVEVHGHLDGKISAQNVVVGQTGVVKGDIEFGENLRTEEGADIEGYIK", "soluble fraction (log2)": 0.0611}, {"sequence": "HMDTGPSFATRRQEAFNALTQIAASNKEFMNVAGDVLWKVADFPEAQILAQRWRRIIPPNVLGEA", "soluble fraction (log2)": -0.465}, {"sequence": "HMDTIAEFIAELTPLEQKVFHVYYEKGQSLKDTAQQAEITSTSARGALDRIRAKGRHFHLAVILFIG", "soluble fraction (log2)": -0.7}, {"sequence": "HMDTINEYERNILSLITSKPGISAVQIAADTDKSIITAKRGIKTLVDGKLIEYRGSKKTGGYFLLTQS", "soluble fraction (log2)": -0.41}, {"sequence": "HMDTIYMVVAKNIKYYRLIKSMSKKDLAEAVNVTPMAISNYENGKRKPEIDILKKIANVLGVRVVDFLTVR", "soluble fraction (log2)": -4.45}, {"sequence": "HMDTKLFNYGVGKHAYISWNEGGKRTAYIGFGNDGADVLTINNVKQGGSLGIYKDKITLNSQTVLTD", "soluble fraction (log2)": -0.038}, {"sequence": "HMDTLHGRILEEFSRKIVDGTWPPGFSLPKETELADQYGVSRMTMNKVLTRLASDGFVIRRKRSGTVVAQP", "soluble fraction (log2)": -1.34}, {"sequence": "HMDTLTRAMVWTIIARAEGVDTTGGATWYAKAQEWVTAKGISDGENPNAAITRQELVTMLYRLAGEPAV", "soluble fraction (log2)": -3.56}, {"sequence": "HMDTMQQESMDTKSILATALMELTSRKNFAKITIADITHVSGFNRQTFYYHFRDKYELLSWIY", "soluble fraction (log2)": -0.0387}, {"sequence": "HMDTNRIIGNKIYQLRRSINMTQQELAEKVGISVTFLSEIENGRKSMSVDTLIKLSKGLQVSLDTIVF", "soluble fraction (log2)": -4.31}, {"sequence": "HMDTPVYYYVNGNGVRMRKDASLESDILILLYKGTKVEYVDVKGEWIKVKYNNEIGYIRNDLLSAEMPD", "soluble fraction (log2)": -0.784}, {"sequence": "HMDTQITPNKAKEIALAHAGVTEAAANFKKIKLDNKNGKSIYEIEFIANKSRYEFIVDAKNGSIIKFEK", "soluble fraction (log2)": -0.378}, {"sequence": "HMDTRKEREIALYEAALRLIASGVNPAAMKVQQIADEAGIGKGTVYEYFASKEEILHGMALH", "soluble fraction (log2)": -0.218}, {"sequence": "HMDTTLFGLFQNVILTQEDYEELSRTIVEDLDGLIDRLSAYMTSTGKTYKNHKATLLSWYLQDEKKFK", "soluble fraction (log2)": -1.78}, {"sequence": "HMDTVEALTEQLKKLDKRGEGQIPAPEFKQYMMNMGGKMTAEELDEMMKVADPGKEGVVNIAEFADAL", "soluble fraction (log2)": 0.313}, {"sequence": "HMDTVEFPVQVNGKVRGKITVAADAGKDAIETAALADEKVLAFLDGATPKKVIVVPGKLVNLVVQPG", "soluble fraction (log2)": 0.62}, {"sequence": "HMDTVSYMSDAVKAGAVTPSHDEEARARYLLYAGFGAILLFLRYEASEPGDIESAIREFMERYGPVTAELY", "soluble fraction (log2)": 0.347}, {"sequence": "HMDTYKGFIFEVVDKYFSPTLNQKIGQAKNKQGIVLLQTKPSFTQDPKVLIEELKLIIDRDNLKA", "soluble fraction (log2)": -1.07}, {"sequence": "HMDVAAQITYAMRTMGVAPIPRNYELFYEAYIGSNPALTKELAALGSKATQEELDELGQQYF", "soluble fraction (log2)": -1.89}, {"sequence": "HMDVFPDESLKAWLIEMGFKLDQKKMNVFTVLRRMLLQTAPSVKEFRILEIVLQQSRRKLKELNDLKKS", "soluble fraction (log2)": -0.00949}, {"sequence": "HMDVKQSAAGVAGRIRFELNRTLTGQGHEKFTSASQAIGPRPAAELARRLFNSGSVVGVHVFANIVTVDLL", "soluble fraction (log2)": 0.136}, {"sequence": "HMDVLKMKVEDLNIGSRTVNSLTAAKIKTVAGLIKKSKESLLELDGMGNKGVEEIILALKKLGLEL", "soluble fraction (log2)": -1.08}, {"sequence": "HMDVPTEEAILAYNNVPIELAAKFIGWSDITIRYALQEERAPFGMAAQNPKTGTWSYNISPGLLLKYKSGE", "soluble fraction (log2)": -2.23}, {"sequence": "HMDVPVEVFMERIVTALREGRKTTFSELMEGKPERGKVIGTFLALLQLSKGQQIQIHQEQRTGEISIEGGA", "soluble fraction (log2)": -0.328}, {"sequence": "HMDVQTVTVIENVNVRKSASENGQKLGLAYTGEKLELLMKQADGWTRVKYNGETAYVKSDYV", "soluble fraction (log2)": 0.372}, {"sequence": "HMDVTSLDMLRFLMDQHGLRQQDLSELGSQGVVSEILAGKRELNLRHIGALARRFKVPPEVFLPA", "soluble fraction (log2)": -0.778}, {"sequence": "HMDVYKRQKLRNFIESLFEDAPKNKQTIELKEEMLQNLIDKYNDLVDSGKSSEAAYNIATAS", "soluble fraction (log2)": 0.131}, {"sequence": "HMDWNPVRDITAHQVLAILQATHIRAPTVAAEAKRTLSSIFQFAVATLRADIDPVWPVRNALPKNKT", "soluble fraction (log2)": -0.262}, {"sequence": "HMDYARYGLSEKEAELIELIAQGMNNKEISAEIYLSEGTVRNYISELLEKLELRDRTQLAVYYYTHR", "soluble fraction (log2)": -2.72}, {"sequence": "HMDYDDLVPLDARGRLRLDGQDIILAFGRHRGRSIEEVHNHDKSYFDWLVSPAGGLEDEVIATLRERF", "soluble fraction (log2)": -0.613}]}]}
